± gives the standard deviation.
Experiment: protein stability index of a GFP-peptide fusion (GPS, HEK-293T) (PSI 1-6); higher = more stable
[1] = treatment: DMSO, c terminus: a fixed tail appended
[2] = treatment: MLN4924 1 uM, 8 h, c terminus: a fixed tail appended
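Note: 24-mer peptide tiles fused after GFP, lentivirally expressed, FACS-sorted into six equal bins by GFP/DsRed ratio, decoded by Illumina sequencing, PSI is the read-weighted mean bin number.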

Row | Sequence | protein stability index [1] | protein stability index [2] | protein stability index (treatment: DMSO, c terminus: native) | protein stability index (treatment: MLN4924 1 uM, 8 h, c terminus: native)
1 | FVSFFNKWDAENAIQQMGGQWLGG [TIA1] | 2.69 ± 0.78 | 2.1 ± 0.59 | – | –
2 | GDHRSPASAQKFSSRSTVPTPAKR [NET1] | 4.75 ± 0.38 | 5.05 ± 0.23 | – | –
3 | AGAARVARWRRLRLQQLRRLRGLL [FBXO33] | 3.13 ± 0.4 | 3.74 ± 0.43 | – | –
4 | PPYQGGPPRPPMGMRPPVMSQGGR [ZNF207] | 4.68 ± 0.34 | 4.91 ± 0.16 | – | –
5 | IFCRDTQTVFQKKNLQQTTNTTST [IQUB] | 3.32 ± 0.34 | 3.66 ± 0.26 | – | –
6 | SFQLEISGFLKEMACPYSVLISGD [FAM98B] | 2.56 ± 1.3 | 2.11 ± 0.74 | – | –
7 | NFDDILNVCDDYDVTCNEFFFDRN [KCNG1] | 3.4 ± 0.28 | 3.27 ± 0.49 | – | –
8 | REFKVTDARDGQSRTVRQFQFTDW [PTPRD] | 3.16 ± 0.34 | 3.11 ± 0.58 | – | –
9 | GYDDDNHDYIVRSGERWLERYEID [DYRK1B] | 4.11 ± 0.27 | 4.03 ± 0.22 | – | –
10 | YSAIDRVKSRGKRLALEKVPKVGQ [PI4K2A] | 4.04 ± 0.33 | 4.12 ± 0.27 | – | –
11 | SPVTENSTSLSFLDSCNSLTPKST [MYBL2] | 4.91 ± 0.15 | 4.77 ± 0.14 | – | –
12 | ATRVAPERLFGSAANVVSAKRNRL [ZBED1] | 3.83 ± 0.28 | 3.82 ± 0.14 | – | –
13 | NSVISVCSSSNLAGNDDSFGSLPS [DLC1] | 4.18 ± 0.21 | 4.23 ± 0.24 | – | –
14 | VDYKQSVLNVAGEAGGKQKAVEEE [SLC6A17] | 5.52 ± 0.44 | 5.68 ± 0.3 | – | –
15 | EDFSLPAYMDRRDHPLPEVAHVKH [COX4I1] | 4.32 ± 0.28 | 4.59 ± 0.18 | – | –
16 | VIAKPSELTSVTAWMLCKLLDKAG [ALDH8A1] | 2.3 ± 0.2 | 2.3 ± 0.23 | – | –
17 | LYRTLFSVINNGHNQKVHMHMVDL [PDS5B] | 2.73 ± 0.56 | 2.77 ± 0.77 | – | –
18 | ARQATNLKVNFFFERIMKYERLAR [FBXO39] | 2.75 ± 0.82 | 2.41 ± 0.32 | – | –
19 | LPSLSCRTSCSSRPCVPPSCHGYT [KRT33B] | 2.1 ± 0.11 | 2.09 ± 0.36 | – | –
20 | DSVAEVAAKARDTGILIFAIGVGQ [MATN2] | 2.73 ± 0.9 | 2.64 ± 0.97 | – | –
21 | TIEQSLLEVMEEEELANLRASQRE [RSPH3] | 4.68 ± 0.24 | 4.88 ± 0.18 | – | –
22 | SDGVYAIVATLLILDICEDNVPDP [TMEM175] | 2.86 ± 0.39 | 2.84 ± 0.51 | – | –
23 | PPLRNYFLEEDNYKNIKRPPGDIM [USP39] | 3.19 ± 0.19 | 3.37 ± 0.17 | – | –

Row | Sequence | protein stability index [1] | protein stability index [2] | protein stability index (treatment: DMSO, c terminus: native) | protein stability index (treatment: MLN4924 1 uM, 8 h, c terminus: native)
24 | DDDAQILPSPVQACSEDSLFLRCS [DRICH1] | 4.17 ± 0.16 | 4.02 ± 0.37 | – | –
25 | SPDLEWHAACLKCAECSQYLDETC [ISL2] | 4.04 ± 0.19 | 4.03 ± 0.39 | – | –
26 | LGLRSLIPAVLTVSMLGYPFILPD [MYORG] | 3.1 ± 0.55 | 3.07 ± 0.36 | – | –
27 | SLCYLQLTRQLVSCSSDGGIAVWN [WDFY1] | 2.87 ± 0.57 | 2.81 ± 0.46 | – | –
28 | GVRCNTPAMGLQKKLRLNGGRNPY [LOXL2] | 2.75 ± 0.12 | 2.95 ± 0.34 | – | –
29 | SIPLTPGDTPIRKKEELLFDDGDD [FBF1] | 5.51 ± 0.54 | 5.62 ± 0.17 | – | –
30 | QSDEEQDSVKVALLETNPYLLALT [CLPTM1] | 3.92 ± 0.19 | 4.16 ± 0.3 | – | –
31 | GQSLLKDEALAIAALELLPRELFP [PRAME] | 2.75 ± 0.41 | 2.84 ± 0.36 | – | –
32 | IETEPTVHHLPLSTEKVVQETVLV [EPB41L3] | 4 ± 0.11 | 3.84 ± 0.28 | – | –
33 | MRLPLPPAQVHSSLSAGEKPGFLA [RASAL3] | 3.4 ± 0.085 | 3.35 ± 0.14 | – | –
34 | AWKHGNIHLSAPCIYSEVMEALDL [PCMTD2] | 2.71 ± 0.26 | 2.73 ± 0.27 | – | –
35 | LEQFVTRFLLKETLNQLQSLQNSL [NECAB1] | 2.87 ± 1.3 | 2.76 ± 0.27 | – | –
36 | ASTPTPDDKLFQKLAKVYSYAHGW [CPN1] | 2.38 ± 0.14 | 2.33 ± 0.26 | – | –
37 | RGNRLKTTSWGLLSLGALVALCWQ [SCNN1D] | 2.3 ± 0.26 | 2.16 ± 0.24 | – | –
38 | EVHVPPSSAVSGVKEWFGLGGEQA [MIA2] | 4.31 ± 0.22 | 4.29 ± 0.44 | – | –
39 | KRYSMYLTPKGGVRTSYQPSSPGR [TRIM29] | 3.15 ± 0.28 | 3.37 ± 0.41 | – | –
40 | LFFPEGTCSNKKALLKFKPGAFIA [LPCAT4] | 1.86 ± 0.38 | 2.41 ± 0.25 | – | –
41 | SLGYKEIRKGESRSEALAVDGAGK [CHGA] | 5.03 ± 0.52 | 4.95 ± 0.31 | – | –
42 | IPISLETQAHIQECKHPSVFQHGD [MCOLN1] | 4.26 ± 0.23 | 4.21 ± 0.14 | – | –
43 | CRKFPRDMKAMSPENQEYFEKHRW [RHOBTB2] | 3.22 ± 0.2 | 3.18 ± 0.29 | – | –
44 | LKLTVVEDVTVGRRQAVAWLVAMH [ZFYVE21] | 3.15 ± 0.56 | 2.91 ± 0.57 | – | –
45 | SAVADKLDNSRSILKRRYYRQHCT [CTDNEP1] | 3.24 ± 0.33 | 3.7 ± 0.49 | – | –
46 | LAPVRQQELASLLRTYLARLPWAG [PBXIP1] | 2.22 ± 0.28 | 2.12 ± 0.27 | – | –

Row | Sequence | protein stability index [1] | protein stability index [2] | protein stability index (treatment: DMSO, c terminus: native) | protein stability index (treatment: MLN4924 1 uM, 8 h, c terminus: native)
47 | PRNGDQWHEIRQGRLPRIPQVLSQ [WEE1] | 3.12 ± 0.17 | 3.32 ± 0.5 | – | –
48 | NPMDMGTIKKRLENNYYWSASECM [BRD3] | 2.34 ± 0.31 | 2.65 ± 0.082 | – | –
49 | VGLIQAAQQLLCDEQAPQRQRLLA [DFFB] | 3.28 ± 0.12 | 3.19 ± 0.12 | – | –
50 | VALPTEAEFQLVRDVVLCSLLNFL [TENT5C] | 2.14 ± 0.28 | 2.13 ± 0.37 | – | –
51 | YRWHINFTTFFIDCMAALGLAYDR [SCD] | 2.99 ± 0.65 | 2.61 ± 0.64 | – | –
52 | THQTQPGIRRARDKALSGGKRKET [NET1] | 4.79 ± 0.23 | 5 ± 0.17 | – | –
53 | TTADLDRKLSFSHSDHSSEMSLPE [SPATS1] | 5.08 ± 0.19 | 4.82 ± 0.27 | – | –
54 | HQHEEIQNVRNHIHSCFSDVTCFL [ATL3] | 2.26 ± 0.15 | 2.26 ± 0.13 | – | –
55 | RVRSLETENRRLESKIREHLEKKG [KRT18] | 4.44 ± 0.26 | 4.99 ± 0.18 | – | –
56 | LAVCLAPSLFHLNTLKRENSSPRV [DLC1] | 2.24 ± 0.24 | 2.11 ± 0.2 | – | –
57 | SILRELDTSMDGTEPPQNPVTPLG [SERTAD3] | 4.35 ± 0.13 | 4.38 ± 0.18 | – | –
58 | LRDTYKLWVPQPPPRTIKRTRRRL [PWWP2B] | 3.46 ± 0.19 | 3.64 ± 0.21 | – | –
59 | FPYFRSDRDKRDFVSAGAAAGVAA [CLCN6] | 3.63 ± 0.45 | 3.82 ± 0.23 | – | –
60 | EDERWTNNFREYNLHRVAAHELGH [MMP1] | 3.73 ± 0.19 | 3.62 ± 0.2 | – | –
61 | RRKGEMGLSAEDGVWAVIISHQQC [TRIM15] | 2.36 ± 0.49 | 2.16 ± 0.21 | – | –
62 | CKAFFKRSIQGHNDYICPATNQCT [ESR2] | 2.15 ± 0.4 | 2.45 ± 0.51 | – | –
63 | LKNEVERLKKQLRAAQLQHSEKMA [CCDC6] | 2.83 ± 0.32 | 3.14 ± 0.25 | – | –
64 | MMRREDEEEEGTMMKAKGDLEMKE [ZBED2] | 5.56 ± 0.25 | 5.64 ± 0.29 | – | –
65 | LLYSEVTASSLVKINLQGDIVDRG [ADD1] | 2.85 ± 0.52 | 2.42 ± 0.42 | – | –
66 | KAHSGRIPISLETQAHIQECKHPS [MCOLN1] | 4.5 ± 0.12 | 4.65 ± 0.14 | – | –
67 | CTDHELENHSMYCVQCKMPVCYQC [TRIM9] | 4.23 ± 0.23 | 4.33 ± 0.36 | – | –
68 | AVNLSVSTLPSLREEEEQVRAHAP [KCNG1] | 3.83 ± 0.54 | 4.21 ± 0.44 | – | –
69 | CYEHFAELDIPQSVQQNGSIYIHV [CLPTM1] | 2.75 ± 0.48 | 2.98 ± 0.45 | – | –

Row | Sequence | protein stability index [1] | protein stability index [2] | protein stability index (treatment: DMSO, c terminus: native) | protein stability index (treatment: MLN4924 1 uM, 8 h, c terminus: native)
70 | NLTIRAGALTGKENNMLQPETHIF [DMRTC1] | 2.95 ± 0.21 | 3.17 ± 0.39 | – | –
71 | DAGSPYLIGLISDRLRRNWPPSFL [SPNS1] | 2.22 ± 0.28 | 2.08 ± 0.25 | – | –
72 | EEDDDDDDDDNLPQLKKESELPFV [ANKRD40] | 5.32 ± 0.1 | 5.42 ± 0.18 | – | –
73 | SKQRKDFEGMAFLETEQGKPFVSV [GMCL1] | 3.42 ± 0.14 | 3.27 ± 0.16 | – | –
74 | TLLEAEPPHVLISRPSAPFTEASM [ESR2] | 3.31 ± 0.26 | 3.46 ± 0.29 | – | –
75 | GAQIWCGEGVDKLSLPARNQAGYF [ALDH8A1] | 2.47 ± 0.27 | 2.65 ± 0.37 | – | –
76 | QRPLVSVTVSDASWVSELLWSLFV [AUP1] | 2.36 ± 0.2 | 2.14 ± 0.2 | – | –
77 | EVPLEVLRQRESKWLDMLNNWDKW [TBC1D10A] | 2.8 ± 0.18 | 3.17 ± 0.49 | – | –
78 | GKDQGINIRQKVKELVEFAQDDDR [CLINT1] | 5.15 ± 0.42 | 4.91 ± 0.28 | – | –
79 | PSDLDQFSDSSLIEDSQALHKRPK [LURAP1L] | 5.49 ± 0.24 | 5.43 ± 0.11 | – | –
80 | RCFYTRKDVRRHLVVHTGCKDFLC [PLAGL1] | 2.11 ± 0.47 | 2.19 ± 0.39 | – | –
81 | SKEKDTQNQNITLDCEGTTNKMKS [KMT2E] | 5.29 ± 0.058 | 5.28 ± 0.45 | – | –
82 | ETLLGDPEKRTQYFDPLRNEYFFD [KCNA4] | 2.91 ± 0.48 | 3.81 ± 0.9 | – | –
83 | QRGQEPLGPGALHFDLRDDDDAEE [TCF25] | 5.36 ± 0.39 | 5.53 ± 0.33 | – | –
84 | ETQKLLCKNGETLLGAVNFFVSSI [ARFIP2] | 2.49 ± 0.52 | 2.25 ± 0.36 | – | –
85 | MVGGNAVPQRTAGGDVPERELYIR [MYORG] | 3.9 ± 0.28 | 4.29 ± 0.16 | – | –
86 | TSSKPTALPSASSAYFPGQLPNS [SASS6] | – | – | 4.42 ± 0.41 | 4.4 ± 0.26
87 | LMLELKSLQEEPVEGFRITLVDES [UBE2R2] | 2.6 ± 0.39 | 2.77 ± 0.17 | – | –
88 | DYMKEVGVGFATRKVAGMAKPNMI [FABP4] | 3.13 ± 0.48 | 3.06 ± 0.64 | – | –
89 | TLGEQGLPHQSHRQRSSLAKINIV [SCNN1D] | 3.27 ± 0.28 | 3.33 ± 0.1 | – | –

From the supplement of paper PMC10567573
